Results: paper PMC4521836
Where two headings read alike, the source gives them in different places.

Target: T1, IscR (Pseudomonas aeruginosa PAO1) (UniProt Q9HXI7)
T1 sequence: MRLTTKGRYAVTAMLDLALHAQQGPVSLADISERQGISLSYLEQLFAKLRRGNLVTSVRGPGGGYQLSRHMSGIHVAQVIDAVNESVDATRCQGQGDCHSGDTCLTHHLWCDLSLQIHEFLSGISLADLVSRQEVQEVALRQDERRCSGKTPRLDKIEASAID
Assay: EMSA

How did the binding turn out when “GTCAACCGCAAGCGCTGATCGGCCGCTGGCTATCCCCGTCAGCGGGGATATTTACAAGCCTTGCGGGTGTTTCTGCCGGGTGCTTTGCGGGACACTAGGGGAGTATCGGTATCCGGAGCGGACCATGACCGCCAGCGAAGAGAAATTCACCCGCCAGACGCTGCTCGACGTGCAGCCTCTGACT (double strand) [fprB promoter fragment, IscR site GCC to TTT]” was run?
The binding was “no binding”.

With “GTCAACCGCAAGCGCTGATCGGCCGCTGGCTATCCCCGTCAGCGGGGATAGCCACAAGCCTTGCGGGTGTTTCTGCCGGGTGCTTTGCGGGACACTAGGGGAGTATCGGTATCCGGAGCGGACCATGACCGCCAGCGAAGAGAAATTCACCCGCCAGACGCTGCTCGACGTGCAGCCTCTGACT (double strand) [fprB promoter fragment (native), 184 bp]” as the sequence, how does the binding (20 mM Tris-HCl pH 8.0, 50 mM KCl, 4 mM MgCl2, 0.5 mM EDTA, 0.02 mg/ml BSA, 5 mM DTT, 10% glycerol, 200 ng poly(dI-dC), 3 fmol probe in 25 ul, 25 C 20 min, 7% …) read?
The binding was “binds”.
